This note sets out measurements from patent publication US20250277026A1.

Test [1] deals with human Claudin-3 (human) (UniProt O15551). Put plainly: FACS on MCF7 cells, which endogenously express Claudin-3 and Claudin-4; MFI relative to the isotype control.
Test [2] concerns the target human Claudin-4 (human) (UniProt O14493). The description is as above.
The target of test [3] is human Claudin-6 (human) (UniProt P56747). Nature of the test: cell-based or functional assay.
For test [4] the target is unchanged. Nature of the test: FACS dose response, Claudin-6-CHO cells.
Test [5] addresses human Claudin-3 (human) (UniProt O15551). Put plainly: FACS on Claudin-3-CHO-K1 cells, MFI relative to the isotype control.
The target of test [6] is human Claudin-9 (human) (UniProt O95484). Put plainly: FACS dose response, Claudin-9-HEK293 cells.
For test [7], the target named is human Claudin-6 (human) (UniProt P56747). Nature of the test: FACS, Claudin-6-CHO-K1 cells. (In general: A flow cytometer gives signals particle by particle.)
For test [8] the target is unchanged. Put plainly: FACS, OV90 cells (endogenous CLDN6).
Test [9] has the same target. Put plainly: FACS, NEC8 cells (endogenous CLDN6).
The target in test [10] is human Claudin-9 (human) (UniProt O95484). Put plainly: FACS, Claudin-9-HEK293 cells, 5 µg/ml.
For test [11], the target named is human Claudin-4 (human) (UniProt O14493). Nature of the test: FACS on Claudin-4-CHO-K1 cells, MFI relative to the isotype control.
Test [12] has as its target human Claudin-6 (human) (UniProt P56747). Nature of the test: FACS dose response, Claudin-6-HEK293 cells.
The target of test [13] is human Claudin-4 (human) (UniProt O14493). Put plainly: FACS, Claudin-4-CHO-K1 cells.

human Claudin-6 (human), sequence (P56747 whole entry): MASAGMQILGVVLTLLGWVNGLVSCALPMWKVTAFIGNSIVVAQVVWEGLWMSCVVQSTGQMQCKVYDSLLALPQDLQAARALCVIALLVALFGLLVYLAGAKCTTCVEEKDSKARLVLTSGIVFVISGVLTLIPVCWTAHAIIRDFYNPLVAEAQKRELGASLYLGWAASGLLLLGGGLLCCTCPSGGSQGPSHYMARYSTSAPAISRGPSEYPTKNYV
human Claudin-4 (human), sequence (O14493 whole entry): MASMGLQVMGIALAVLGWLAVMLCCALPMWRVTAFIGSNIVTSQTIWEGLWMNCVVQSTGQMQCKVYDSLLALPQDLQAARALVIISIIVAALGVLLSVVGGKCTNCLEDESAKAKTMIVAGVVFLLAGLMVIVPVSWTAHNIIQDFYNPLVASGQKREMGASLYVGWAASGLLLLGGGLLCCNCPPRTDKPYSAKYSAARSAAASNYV
human Claudin-3 (human), sequence (O15551 whole entry): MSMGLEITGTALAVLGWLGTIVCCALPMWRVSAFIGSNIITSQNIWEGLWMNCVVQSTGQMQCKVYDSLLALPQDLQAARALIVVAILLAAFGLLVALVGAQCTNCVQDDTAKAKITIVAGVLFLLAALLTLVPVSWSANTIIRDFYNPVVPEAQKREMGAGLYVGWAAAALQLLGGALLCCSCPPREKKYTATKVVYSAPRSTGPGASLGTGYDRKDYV
human Claudin-9 (human), sequence (O95484 whole entry): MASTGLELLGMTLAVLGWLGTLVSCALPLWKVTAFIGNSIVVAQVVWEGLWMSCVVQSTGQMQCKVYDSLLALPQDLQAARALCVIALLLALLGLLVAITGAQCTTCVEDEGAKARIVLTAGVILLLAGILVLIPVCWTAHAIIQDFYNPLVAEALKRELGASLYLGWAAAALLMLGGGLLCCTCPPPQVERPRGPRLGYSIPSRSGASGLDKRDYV

B1: NR.N6.PC1 (antibody, from another filing, V domains shown)
VH: EVQLQQSGPELVKPGASMKISCKASGYSFTGYTMNWVKQSHGKNLEWIGLINPYNGGTIYNQKFKGKATLTVDKSSSTAYMELLSLTSEDSAVYYCARDYGFVLDYWGQGTTLTVSS
VL: QIVLTQSPSIMSVSPGEKVTITCSASSSVSYMHWFQQKPGTSPKLCIYSTSNLASGVPARFSGRGSGTSYSLTISRVAAEDAATYYCQQRSNYPPWTFGGGTKLEIK
As usually defined, the EC50 is the concentration needed to bring the measured effect to its halfway point. Turning to B1, the fold MFI over isotype control with human Claudin-3 (human) [1] turned out to be 0.7 x; with human Claudin-4 (human) [2] it was 0.7 x; with human Claudin-3 (human) [5], 1.1 x; in the test with human Claudin-6 (human) [7], 25 fold; in the test with human Claudin-6 (human) [8] it was 20 fold; with human Claudin-6 (human) [9], 19 fold. Moreover, the fold MFI over isotype control was found to be 15 fold in the test with human Claudin-9 (human) [10] and 1.2 x with human Claudin-4 (human) [11]. Moreover, in the test with human Claudin-6 (human) [3], the endocytosis-mediated cytotoxicity (anti-hFc Fab-MMAF, CellTiter-Glo) on NEC8 cells, EC50 mean (St. Dev. 0.03) amounted to 0.05 nM. In addition, in the test with human Claudin-6 (human) [3], the endocytosis-mediated cytotoxicity on OV90 cells, EC50 was 1.96 nM. The values for the EC50 in the test with human Claudin-6 (human) [4], with human Claudin-9 (human) [6] and in the test with human Claudin-6 (human) [12] were 1.52 nM, 16.4 nM and 1.51 nM, respectively.

B2: NR.N6.PC2 (antibody, from another filing, V domains shown)
VH: QVQLVQSGAEVKKPGASVKVSCKASGYTFTSYWMNWVRQAPGQRLEWMGMIHPSDSEIRLNQKFKDRVTITRDTSASTAYMELSSLRSEDTAVYYCARIDSYYGYLFYFDYWGQGTTVTVSS
VL: DIVMTQSPDSLAVSLGERATINCRASQTVSTSSYSYMHWYQQKPGQPPKLLIYFASNVESGVPDRFSGSGSGTDFTLTISSLQAEDVAVYYCQHSWEIPWTFGQGTKLEIKR
On to B2, for which the fold MFI over isotype control was 1 x with human Claudin-3 (human) [1]; 1 x with human Claudin-4 (human) [2]; 1.6 x in the test with human Claudin-3 (human) [5]; 25 fold with human Claudin-6 (human) [7]; 15 fold in the test with human Claudin-6 (human) [8]; 20 fold in the test with human Claudin-6 (human) [9]. Moreover, the fold MFI over isotype control in the test with human Claudin-9 (human) [10] worked out at 32 fold; in the test with human Claudin-4 (human) [13], 4.5 fold. Moreover, in the test with human Claudin-6 (human) [3], the endocytosis-mediated cytotoxicity (anti-hFc Fab-MMAF, CellTiter-Glo) on NEC8 cells, EC50 mean (St. Dev. 0.04) was 0.14 nM. The molecule further returned an endocytosis-mediated cytotoxicity on OV90 cells, EC50 with human Claudin-6 (human) [3] of 1.71 nM. Further, the concentration for a half-maximal effect (EC50) in the test with human Claudin-6 (human) [4] is 24.5 nM; with human Claudin-9 (human) [6], 7.57 nM; in the test with human Claudin-6 (human) [12] it was 8.73 nM.
